# Assay results published in FireProtDB.
# B1: Gamma-crystallin D, P07320 (parent)
# chain: MGKITLYEDRGFQGRHYECSSDHPNLQPYLSRCNSARVDSGCWMLYEQPNYSGLQYFLRRGDYADHQQWMGLSDSVRSCRLIPHSGSHRIRLYEREDYRGQMIEFTEDCSCLQDRFRFNEIHSLNVLEGSWVLYELSNYRGRQYLLMPGDYRRYQDWGATNARVGSLRRVIDFS
# B2: Glutamate dehydrogenase, Q56304 (parent)
# chain: MVEQDPFEIAVKQLERAAQYMDISEEALEFLKRPQRIVEVSIPVEMDDGSVKVFTGFRVQYNWARGPTKGGIRWHPEETLSTVKALAAWMTWKTAVMDLPYGGGKGGVICNPKEMSDREKERLARGYVRAIYDVISPYTDIPAPDVYTNPQIMAWMMDEYETISRRKDPSFGVITGKPPSVGGIVARMDATARGASYTVREAAKALGMDLKGKTIAIQGYGNAGYYMAKIMSEEYGMKVVAVSDSKGGIYNPDGLNADEVLAWKKKTGSVKDFPGATNITNEELLELEVDVLAPSAIEEVITKKNADNIKAKIVAELANGPTTPEADEILYEKGILIIPDFLCNAGGVTVSYFEWVQNITGDYWTVEETRAKLDKKMTKAFWDVYNTHKEKNINMRDAAYVVAVSRVYQAMKDRGWIKK
# B3: AP-4 complex subunit mu-1, O00189 (parent)
# chain: MISQFFILSSKGDPLIYKDFRGDSGGRDVAELFYRKLTGLPGDESPVVMHHHGRHFIHIRHSGLYLVVTTSENVSPFSLLELLSRLATLLGDYCGSLGEGTISRNVALVYELLDEVLDYGYVQTTSTEMLRNFIQTEAVVSKPFSLFDLSSVGLFGAETQQSKVAPSSAASRPVLSSRSDQSQKNEVFLDVVERLSVLIASNGSLLKVDVQGEIRLKSFLPSGSEMRIGLTEEFCVGKSELRGYGPGIRVDEVSFHSSVNLDEFESHRILRLQPPQGELTVMRYQLSDDLPSPLPFRLFPSVQWDRGSGRLQVYLKLRCDLLSKSQALNVRLHLPLPRGVVSLSQELSSPEQKAELAEGALRWDLPRVQGGSQLSGLFQMDVPGPPGPPSHGLSTSASPLGLGPASLSFELPRHTCSGLQVRFLRLAFRPCGNANPHKWVRHLSHSDAYVIRI
# B4: Interleukin-6, P08505 (parent)
# chain: MKFLSARDFHPVAFLGLMLVTTTAFPTSQVRRGDFTEDTTPNRPVYTTSQVGGLITHVLWEIVEMRKELCNGNSDCMNNDDALAENNLKLPEIQRNDGCYQTGYNQEICLLKISSGLLEYHSYLEYMKNNLKDNKKDKARVLQRDTETLIHIFNQEVKDLHKIVLPTPISNALLTDKLESQKEWLRTKTIQFILKSLEEFLKVTLRSTRQT
# B5: Triosephosphate isomerase, P00943 (parent)
# chain: MRKPIIAGNWKMHKTLAEAVQFVEDVKGHVPPADEVISVVCAPFLFLDRLVQAADGTDLKIGAQTMHFADQGAYTGEVSPVMLKDLGVTYVILGHSERRQMFAETDETVNKKVLAAFTRGLIPIICCGESLEEREAGQTNAVVASQVEKALAGLTPEQVKQAVIAYEPIWAIGTGKSSTPEDANSVCGHIRSVVSRLFGPEAAEAIRIQYGGSVKPDNIRDFLAQQQIDGPLVGGASLEPASFLQLVEAGRHE
# B6: Phenylalanine--tRNA ligase, mitochondrial, O95363 (parent)
# chain: MVGSALRRGAHAYVYLVSKASHISRGHQHQAWGSRPPAAECATQRAPGSVVELLGKSYPQDDHSNLTRKVLTRVGRNLHNQQHHPLWLIKERVKEHFYKQYVGRFGTPLFSVYDNLSPVVTTWQNFDSLLIPADHPSRKKGDNYYLNRTHMLRAHTSAHQWDLLHAGLDAFLVVGDVYRRDQIDSQHYPIFHQLEAVRLFSKHELFAGIKDGESLQLFEQSSRSAHKQETHTMEAVKLVEFDLKQTLTRLMAHLFGDELEIRWVDCYFPFTHPSFEMEINFHGEWLEVLGCGVMEQQLVNSAGAQDRIGWAFGLGLERLAMILYDIPDIRLFWCEDERFLKQFCVSNINQKVKFQPLSKYPAVINDISFWLPSENYAENDFYDLVRTIGGDLVEKVDLIDKFVHPKTHKTSHCYRITYRHMERTLSQREVRHIHQALQEAAVQLLGVEGRF
# B7: Acylphosphatase-1, P41500 (parent)
# chain: MSMAEGDTLISVDYEIFGKVQGVFFRKYTQAEGKKLGLVGWVQNTDQGTVQGQLQGPASKVRHMQEWLETKGSPKSHIDRASFHNEKVIVKLDYTDFQIVK
# B8: W74C, P95467 (parent)
# chain: MKKALIASTALLLTAGVAAADVKISGYGRTGVIYYENDSDVNESRVQSRLRMNIDASSSTDSGVDFGARFRLQWDQGEEGEAQTNAGKLWVSAQGFTVEVGNVDTAFASNGLIYETGLGSYDRSVGFSAVTGAFFAYDSNGYGIDEVDRVGIRALYTLGDLTLQASYVDPDQSGTVIGVEEEFGFSVDYTWNERLELSAAAAFNGAGIDGNDIYFLGARYAVMDNARIGLNFVDAGDEEDGYDGKTIALYGDYTLADGRTNLEAYIANNDRDSNETDNAFGIGVNYDLGGARLGASLQRDYAENVTADFGVRFEF
# B9: Cytochrome c2, P00094 (parent)
# chain: MKISLTAATVAALVLAAPAFAGDAAKGEKEFNKCKTCHSIIAPDGTEIVKGAKTGPNLYGVVGRTAGTYPEFKYKDSIVALGASGFAWTEEDIATYVKDPGAFLKEKLDDKKAKTGMAFKLAKGGEDVAAYLASVVK
# B10: Beta-lactoglobulin, P02754 (parent)
# chain: MKCLLLALALTCGAQALIVTQTMKGLDIQKVAGTWYSLAMAASDISLLDAQSAPLRVYVEELKPTPEGDLEILLQKWENGECAQKKIIAEKTKIPAVFKIDALNENKVLVLDTDYKKYLLFCMENSAEPEQSLACQCLVRTPEVDDEALEKFDKALKALPMHIRLSFNPTQLEEQCHI
# B11: Guanyl-specific ribonuclease Sa, P05798 (parent)
# chain: DVSGTVCLSALPPEATDTLNLIASDGPFPYSQDGVVFQNRESVLPTQSYGYYHEYTVITPGARTRGTRRIITGEATQEDYYTGDHYATFSLIDQTC
# B12: Glutamate dehydrogenase, P96110 (parent)
# chain: MPEKSLYEMAVEQFNRAASLMDLESDLAEVLRRPKRVLIVEFPVRMDDGHVEVFTGYRVQHNVARGPAKGGIRYHPDVTLDEVKALAFWMTWKTAVMNLPFGGGKGGVRVDPKKLSRNELERLSRRFFSEIQVIIGPYNDIPAPDVNTNADVMAWYMDTYSMNVGHTVLGIVTGKPVELGGSKGREEATGRGVKVCAGLAMDVLGIDPKKATVAVQGFGNVGQFAALLISQELGSKVVAVSDSRGGIYNPEGFDVEELIRYKKEHGTVVTYPKGERITNEELLELDVDILVPAALEGAIHAGNAERIKAKAVVEGANGPTTPEADEILSRRGILVVPDILANAGGVTVSYFEWVQDLQSFFWDLDQVRNALEKMMKGAFNDVMKVKEKYNVDMRTAAYILAIDRVAYATKKRGIYP
# B13: Subtilisin-chymotrypsin inhibitor-2A, P01053 (parent)
# chain: MSSVEKKPEGVNTGAGDRHNLKTEWPELVGKSVEEAKKVILQDKPEAQIIVLPVGTIVTMEYRIDRVRLFVDKLDNIAQVPRVG
# Variants of: B1
# Conditions: Homo sapiens; pH 7; Thermal; ANS fluorescence; PBS; transition: 2; reversible: yes; structure 1HK0; whole UniProt chain shown
Variant,Tm,"change of melting temperature, mutant - wild type (higher = more stable)"
G61C,69.6 °C,-7 °C

# Same assay, conditions: Homo sapiens; pH 7; Thermal; CD; PBS; transition: 2; reversible: yes; structure 1HK0; whole UniProt chain shown
Variant,Tm,"change of melting temperature, mutant - wild type (higher = more stable)"
G61C,73.9 °C,-6.1 °C

# Same assay, conditions: Homo sapiens; pH 7; Thermal; Fluorescence; PBS; transition: 2; reversible: yes; structure 1HK0; whole UniProt chain shown
row,Variant,Tm
1,G61C,74.3 °C

# Same assay, conditions: Homo sapiens; pH 7; Thermal; light scattering; PBS; transition: 2; reversible: yes; structure 1HK0; whole UniProt chain shown
row,Variant,Tm
1,G61C,75.1 °C

# Variants of: B2
# Conditions: Thermococcus litoralis (strain ATCC 51850 / DSM 5473 / JCM 8560 / NS-C); pH 7; Thermal; DSC; diglycine 50 mM; KCl 700 mM; reversible: no; structure 1BVU; whole UniProt chain shown
Variant,Tm,"change of melting temperature, mutant - wild type (higher = more stable)"
T139E,104 °C,-5.5 °C
T139E D168T,112 °C,2.5 °C
D168T,108 °C,-0.5 °C

# Variants of: B3
# Conditions: Homo sapiens; pH 7.4; Thermal; DSC; structure 3L81; whole UniProt chain shown
Variant,Tm,"change of melting temperature, mutant - wild type (higher = more stable)"
D190A,50.9 °C,-4.9 °C
R283D,52.8 °C,-3 °C

# Variants of: B4
# Conditions: Mus musculus; pH 4; 25 °C; Urea; CD; Sodium acetate 20 mM/; reversible: yes; structure 2L3Y; whole UniProt chain shown
row,Variant,denaturant midpoint (higher = more stable)
1,Y123A,4.1 M
2,F200A,2.6 M

# Same assay, conditions: Mus musculus; pH 4; 25 °C; Urea; Fluorescence; Sodium acetate 20 mM/; reversible: yes; structure 2L3Y; whole UniProt chain shown
row,Variant,denaturant midpoint (higher = more stable)
1,F200A,3.5 M

# Same assay, conditions: Mus musculus; pH 4; 37 °C; Urea; CD; Sodium acetate 20 mM/; reversible: yes; structure 2L3Y; whole UniProt chain shown
row,Variant,denaturant midpoint (higher = more stable)
1,F200A,2.6 M

# Same assay, conditions: Mus musculus; pH 4; 37 °C; Urea; Fluorescence; Sodium acetate 20 mM/; reversible: yes; structure 2L3Y; whole UniProt chain shown
row,Variant,denaturant midpoint (higher = more stable)
1,F200A,3.5 M

# Variants of: B5
# Conditions: Geobacillus stearothermophilus; pH 7.6; Thermal; DSC; TEA 100 mM; structure 1BTM; whole UniProt chain shown
Variant,Tm,"change of melting temperature, mutant - wild type (higher = more stable)"
H13N,77 °C,1 °C
H13N K14G,105 °C,
K14G,73 °C,-3 °C

# Variants of: B6
# Conditions: Homo sapiens; pH 7.5; 25 °C; Urea; CD; Tris-HCl 50 mM; transition: 2; structure 3CMQ; whole UniProt chain shown
Variant,ddG of mutation (higher = less stable),denaturant midpoint (higher = more stable)
S57C,-0.43 kcal/mol,5.9 M
S57C N280S,3.03 kcal/mol,7.9 M
N280S,-0.51 kcal/mol,5.7 M

# Variants of: B7
# Conditions: Bos taurus; pH 5.5; 25 °C; Thermal; CD; sodium acetate 5 mM; reversible: Yes; structure 2ACY; whole UniProt chain shown
row,Variant,ddG of mutation (higher = less stable)
1,K27E E66K N85K Q98K,-1.67 kcal/mol

# Same assay, conditions: Bos taurus; pH 5.5; Thermal; CD; sodium acetate 5 mM; reversible: Yes; structure 2ACY; whole UniProt chain shown
row,Variant,"change of melting temperature, mutant - wild type (higher = more stable)"
1,K27E E66K N85K Q98K,5.4 °C

# Same assay, conditions: Bos taurus; pH 7; 25 °C; Thermal; DSC; sodium phosphate 50 mM; reversible: Yes; structure 2ACY; whole UniProt chain shown
row,Variant,ddG of mutation (higher = less stable)
1,K27E E66K N85K Q98K,-1.67 kcal/mol

# Same assay, conditions: Bos taurus; pH 7; Thermal; DSC; sodium phosphate 50 mM; reversible: Yes; structure 2ACY; whole UniProt chain shown
row,Variant,"change of melting temperature, mutant - wild type (higher = more stable)"
1,K27E E66K N85K Q98K,5.4 °C

# Variants of: B8
# Conditions: Paracoccus denitrificans; pH 8; Thermal; Absorbance; Tris-HCl 50 mM; NaCl 100 mM; reversible: no; whole UniProt chain shown
Variant,Tm,"change of melting temperature, mutant - wild type (higher = more stable)"
W74C,82.4 °C,-3.8 °C
E81Q,84.2 °C,-2 °C
E81Q D148N,82.3 °C,-3.9 °C

# Variants of: B9
# Conditions: Rhodobacter capsulatus (strain ATCC BAA-309 / NBRC 16581 / SB1003); pH 7.5; 30 °C; GdnHCl; CD; Tris 20 mM; structure 1C2R; whole UniProt chain shown
row,Variant,denaturant midpoint (higher = more stable)
1,G55S,0.86 M
2,P56A,0.9 M

# Variants of: B10
# Conditions: Bos taurus; pH 7.1; 30 °C; GdnHCl; CD; phosphate 0.11 M; NaCl 0.04 M; structure 1B0O; whole UniProt chain shown
Variant,ddG of mutation (higher = less stable),unfolding free energy
W35Y,6.91 kcal/mol,4.3 kcal/mol

# Variants of: B11
# Conditions: Kitasatospora aureofaciens; pH 7; 25 °C; Thermal; CD; MOPS 30 mM; structure 1RGG; whole UniProt chain shown
row,Variant,ddG of mutation (higher = less stable)
1,D25H,-0.9 kcal/mol
2,D17K,1.1 kcal/mol
3,E74K,-1.1 kcal/mol
4,E41K,1.2 kcal/mol

# Variants of: B12
# Conditions: Thermotoga maritima (strain ATCC 43589 / DSM 3109 / JCM 10099 / NBRC 100826 / MSB8); pH 7.4; Thermal; DSC; Sodium phosphate 20 mM; reversible: no; structure 1B26; whole UniProt chain shown
row,Variant,Tm
1,N118R,88.7 °C
2,S129R,87 °C
3,S129R T159E N118R,89.6 °C
4,S129R T159E N118R S161E,88.3 °C
5,S129R T159E S161E,88 °C
6,T159E,83.1 °C

# Variants of: B13
# Conditions: Hordeum vulgare; pH 4.2; 50 °C; GdnHCl; Fluorescence; Sodium acetate 50 mM; reversible: yes; structure 2CI2; whole UniProt chain shown
Variant,ddG of mutation (higher = less stable),unfolding free energy
R68A,1.4 kcal/mol,4.1 kcal/mol

# Same assay, conditions: Hordeum vulgare; pH 6.3; 25 °C; GdnHCl; Fluorescence; MES 50 mM; structure 2CI2; whole UniProt chain shown
row,Variant,unfolding free energy
1,L21M,7.3 kcal/mol
2,P53E F70A,2.61 kcal/mol

# Same assay, conditions: Hordeum vulgare; pH 7; 30 °C; GdnHCl; Fluorescence; MOPS 50 mM; structure 2CI2; whole UniProt chain shown
Variant,ddG of mutation (higher = less stable),denaturant m value,unfolding free energy
I40V,1.17 kcal/mol,1.92 kcal/mol/M,5.88 kcal/mol
I40L,1.96 kcal/mol,1.92 kcal/mol/M,5.09 kcal/mol
